Values belong to the molecule of their own block, whether it stands above or below them.
Columns and labels:
TadA7.10 [1] = molecular target: T1, TadA7.10 (Escherichia coli? (laboratory-evolved …, UniProt P68398 1-167, W23R;H36L;P48A;R51L;L84F;A106V;D108N;H123Y;S146C;D147Y;R152P;E155V;I156F;K157N)); assay: SEC; Superdex 200 Increase 10/300 GL, 20 mM HEPES pH7.5, 500 mM KCl; elution position between 44.0 and 29.0 kDa compared with the monomer mass of about 18.7 kDa
TadA8e (E. coli) = TadA8e (E. coli) (UniProt P68398); assay: as above
TadA7.10-3mut = TadA7.10-3mut (Escherichia coli? (laboratory-evolved …, UniProt P68398 1-167, W23R;H36L;P48A;R51L;L84F;A106V;D108N;T111R;D119N;H123Y;S146C;D147Y;R152P;E155V;I …)); assay: MST; 5 mM Mg2+; MST: 20 mM HEPES pH 7.5, 200 mM KCl, 5 mM MgCl2, 1 mM DTT, 0.05% Tween-20; 100 nM DNA; 120 min at room temperature; conditions: protein: recombinant; tags: N-terminal non-cleavable His6; chain copies: 2; label: 5' 6-FAM; single-stranded
TadA7.10 [2] = molecular target: T1, TadA7.10; assay: as above; conditions: protein: recombinant; tags: N-terminal non-cleavable His6; chain copies: 2; label: 5' 6-FAM; single-stranded

stoichiometry N (TadA7.10 [1]): 2
Molecule: TadA7.10 (from UniProt P68398 1-167) (enzyme)

stoichiometry N (TadA8e (E. coli)): 2
Molecule: TadA8e (from UniProt P68398 1-167) (enzyme)

Molecule: TTCTCTTCCACTTTCTTTT (ssDNA) [19-nt ssDNA (NTS of 6VPC with five bases mutated at either end)]
Kd (TadA7.10-3mut): 38.5 nM | Kd (TadA7.10 [2]): 106 nM

Reference: publication PMC11335294, “Directed-evolution mutations enhance DNA-binding affinity and protein stability of the adenine base editor ABE8e”
